Tests used:
Format in all cases: cell-based, human
[1] = test system: promoter of CD133 gene in HEK293T cells; experiment: CD133 induction experiment; settings: PYL1 fusion, 1 μM abscisic acid, pool of 5 gRNAs
Experimental: Up to 2 additional TADs selected from p65 and HSF1 were combined with SPDYE4-CITED1 TADs in different orders and tested for the ability to activate transcription of the PYL1-ABI EGFP reporter system (FIG. 17, left panel) or the endogenous CD133 gene (FIG. 17, right panel).
(§1) Methods: Cells were seeded on 48-well plates. Next day, after cells were between 70-90% confluent, 250 ng of each construct was transfected in each well using (Thermo Fisher Scientific, 11668019) reagent. Each construct was either directly fused TagRFP either directly fused to each component or being co-expressed from the same plasmid was used as a measure of transfection. In each experiment, the same gate for RFP+ cells were used to control for the effect of each construct's expression levels on activity. EGFP reporter cells were expanded from a clonal line to control for level of ABI-dCas9 and gRNA targeting the TetO7 sites upstream of the promoter. For the CD133 induction experiment, a 293T cell line stably expressing ABI-dCas9 and a pool of 5 gRNAs targeting the promoter were used for all activators. CD133 antibody conjugated to APC (Miltenyi Biotec, 130-113-668) was used. All activator constructs were fused to PYL1 at their C-terminus and were recruited to their targets by treating the cells with 1 μM abscisic acid for either 24 or 48 hours.

[2] = test system: 7×TetO-EGFP reporter in HEK293T cells; experiment: 117 effector domains with rTetR or dCas9 based recruitment systems; settings: rTetR fusion (1 μg/ml doxycycline 48 hours) or PYL1 with dCas9-ABI1
Experimental: A further 117 different combinations of activation domains or fragments of individual activation domains were assayed by fusing them either to PYL1 (to test with the dCas9-ABI1 system) or to rTetR, a transcription factor that binds DNA in the presence of doxycycline. All constructs were tested with the same TetO reporter construct.
Methods: 200 ng of plasmid expressing super activators fused to rTetR in their C terminus and 50 ng DsRed was transfected into HEK293T cells stably expressing 7×TetO-EGFP reporter. One day after transfection, cells were treated with 1 μg/ml doxycycline for 48 hours. After the treatment, cells were analyzed by flow cytometry for EGFP expression

[3] = test system: EGFP reporter (TetO7) in HEK293T cells; experiment: Multi-TAD effectors fused to PYL1 recruited to EGFP reporter; settings: PYL1 fusion, 1 μM abscisic acid, 24 or 48 hours
Experimental: Multiple TADs were fused together with PYL1 and tested for transcriptional activity using the PYL1-ABI EGFP reporter system described above. The following TAD fragments were used: CITED1-8 (SEQ ID NO: 47), CITED2-12 (SEQ ID NO: 49), C3orf62-12 (SEQ ID NO: 45), BRD8-25 (SEQ ID NO: 40), ZXDC-12 (SEQ ID NO: 97), KLF7-1 (SEQ ID NO: 72), ATXN7L3-1 (SEQ ID NO: 35), FAM90A1-20 (SEQ ID NO: 60), SPDYE4-3 (SEQ ID NO: 90), YAF2-7 (SEQ ID NO: 96).
as §1, with “All activator constructs were fused to PYL1 at their C-terminus and were recruited to their targets by treating the cells with 1 μM abscisic acid for either 24 or 48 hours.” left out

B1: SPDYE4-CITED1-P65-HSF1: multi-component effector of SPDYE4, CITED1, p65 and HSF1 activation domains (protein)
chain: MDPSPQPQSLGLKRKSEWSDESEEELEEELELERAPEPEDTWVVETLCGLKMKLKRKRASSGGSGGSESLSPSAGAQSPAIIDSDPVDEEVLMSLVVELGLDRANELPELWLGQNEFDFTADFPSSCGGSINSRSSGSPKKKRKVGSQYLPDTDDRHRIEEKRKRTYETFKSIMKKSPFSGPTDPRPPPRRIAVPSRSSASVPKPAPQPYPFTSSLSTINYDEFPTMVFPSGQISQASALAPAPPQVLPQAPAPAPAPAMVSALAQAPAPVPVLAPGPPQAVAPPAPKPTQAGEGTLSEALLQLQFDDEDLGALLGNSTDPAVFTDLASVDNSEFQQLLNQGIPVAPHTTEPMLMEYPEAITRLVTGAQRPPDPAPAPLGAPGLPNGLLSGDEDFSSIADMDFSALLGSGSGSGFSVDTSALLDLFSPSVTVPDMSLPDLDSSLASIQELLSPQEPPRPPEAENSSPDSGKQLVHYTAQPLFLLDPGSVDTGSNDLPVLFELGEGSYFSEGDGFAEDPTISLLTGSEPPKAKDPTVS
With B1 the “activation of endogenous CD133 gene” value [1] was “most robust activation”, the “activity of effector constructs on TetO reporter” value [2] was “the most active constructs in the system” and the “transcriptional activation of EGFP reporter by TAD fusions” value [3] was “most robust activation”.

From patent US20240309360A1, “TRANS-ACTIVATORS AND METHODS AND USE THEREOF” (THE GOVERNING COUNCIL OF THE UNIVERSITY OF TORONTO, priority 2021, published 2024)
